These are literature values, as cited in publication PMC8900815.

This series addresses His124 (UniProt position 124, EWVKGHAGHPE). Put plainly: NMR. As to conditions: metal-free (no divalent cation bound).

With “Ribonuclease HI (RNase HI) (Escherichia coli)”, the pKa result was “around 7”.
